Experimental data reported in patent publication US20210155703A1 (Bristol-Myers Squibb, published 2021).

Tests used:
[1] = target: T1, human CD27 on human T cells (human, UniProt P26842 21-260); assay: flow cytometry on human T cells, n=5; mean of n=5
T1 construct: Native CD27 on primary human T cells; also called hCD27
T1 sequence: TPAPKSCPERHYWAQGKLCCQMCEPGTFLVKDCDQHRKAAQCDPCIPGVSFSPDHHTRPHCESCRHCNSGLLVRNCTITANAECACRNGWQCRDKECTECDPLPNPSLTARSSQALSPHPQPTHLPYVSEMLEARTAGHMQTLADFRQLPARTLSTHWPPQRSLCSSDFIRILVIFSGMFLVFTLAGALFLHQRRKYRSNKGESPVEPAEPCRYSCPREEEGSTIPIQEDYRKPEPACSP

[2] = target: T2, cynomolgus CD27 on cynomolgus T cells (cynomolgus monkey); assay: estimated in vivo serum EC50 for 50% CD27 receptor occupancy in monkey whole blood, Emax model
T2 construct: whole, on cells; also called cCD27
Description: Criteria for evaluation included clinical observations, hematology, PK, CD27 receptor occupancy (RO), circulating sCD27 levels, lymphocyte subset analysis, cytokine levels, and ADA determination. Blood samples were obtained prior to dosing and at various intervals up to 42 days post-dose. Overall, there were no adverse findings, including no adverse clinical observations and no changes in hematologic parameters. There were time- and dose-dependent increases in circulating sCD27 levels. […] There were no significant changes in circulating lymphocyte subsets including CD4⁺, Treg (Foxp3⁺/CD4⁺), CD8⁺ T, CD20⁺ B, and NK cells, or circulating cytokine levels.

[3] = target: T2, cynomolgus CD27 on cynomolgus T cells; assay: flow cytometry on cynomolgus T cells, FIG. 1B
[4] = target: T1, human CD27 on human T cells; assay: flow cytometry on human T cells, FIG. 1A
[5] = target: T1, human CD27 on human T cells; assay: flow cytometry on human T cells, n=5; lowest of the n=5 determinations
[6] = target: T3, human CD27 (hCD27), form in the assay not stated (human, UniProt P26842 20-260, limits assumed); assay: Scatchard analysis; format not stated; Scatchard analysis, not SPR; antibody, format not stated
T3 construct: Whole entry named
T3 sequence: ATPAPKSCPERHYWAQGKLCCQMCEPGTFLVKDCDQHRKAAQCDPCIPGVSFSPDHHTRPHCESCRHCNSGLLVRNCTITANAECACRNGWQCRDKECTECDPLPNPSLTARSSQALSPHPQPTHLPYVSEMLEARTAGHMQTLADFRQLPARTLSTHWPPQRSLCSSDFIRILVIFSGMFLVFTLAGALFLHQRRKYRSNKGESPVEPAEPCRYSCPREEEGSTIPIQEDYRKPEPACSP

[7] = target: T2, cynomolgus CD27 on cynomolgus T cells; assay: binding to cynomolgus T cells
[8] = target: T1, human CD27 on human T cells; assay: flow cytometry on human T cells, n=5; highest of the n=5 determinations
[9] = target: T1, human CD27 on human T cells; assay: cell-based or functional assay
[10] = target: T1, human CD27 on human T cells; assay: flow cytometry on human T cells pretreated with 10 µg/ml human CD70; bound antibody detected with labelled anti-human IgG
[11] = target: T4, hCD27-mouseFc or hCD27-Histag proteins (human, UniProt P26842 20-191); assay: SPR at 37 C, Fab with hCD27-mouseFc or hCD27-Histag, 1:1 fit binding model; 37 C; lower end of the measured values
T4 construct: not shown: mouse Fc or His tag
T4 sequence: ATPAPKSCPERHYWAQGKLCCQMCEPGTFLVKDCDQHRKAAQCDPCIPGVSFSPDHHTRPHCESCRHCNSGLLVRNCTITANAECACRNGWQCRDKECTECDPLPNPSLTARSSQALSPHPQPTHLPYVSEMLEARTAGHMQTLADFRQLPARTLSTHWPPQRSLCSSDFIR
Experimental: (§1) The measured values were 41-44 nM at 37° C. and 13-16 nM at 25° C. […] The kinetic analysis used a 1:1 fit binding model.

[12] = target: T4, hCD27-mouseFc or hCD27-Histag proteins; assay: SPR; due to an increased dissociation rate, association rate unchanged
Experimental: as §1

[13] = target: T4, hCD27-mouseFc or hCD27-Histag proteins; assay: SPR at 25 C, Fab with hCD27-mouseFc or hCD27-Histag, 1:1 fit binding model; 25 C; lower end of the measured values
Experimental: as §1

[14] = target: T1, human CD27 on human T cells; assay: blocking assay by flow cytometry: human T cells with antibody in the presence of 10 µg/ml soluble human CD70; blocked ligand CD70 detected with labelled anti-CD70
Description: Binding of the Abs in the assay was detected by a labeled anti-human IgG Ab (*, ahIgG). […] Binding of the ligand blocking 1F5 Ab was not detected. […] CD70 was detected by a labeled anti-CD70 Ab (*, aCD70). […] Binding of CD70 decreased with increasing concentrations of the ligand blocking 1F5 Ab. “MFI,” “hIgG1,” and “FL2” are as described for FIG. 1. “FL1” in (B) indicates measurement in fluorescence channel 1 (FL1).
The presence or absence of binding of the Abs was detected using a labeled anti-human IgG Ab. […] See FIG. 2A, showing a schematic of the assay, and FIG. 2B, showing a graph of the results. Binding of the ligand blocking 1F5 Ab was not detected. Id. […] CD70 was detected by a labeled anti-CD70 Ab.

B1: HuMAb BMS-986215 (human IgG1 anti-human CD27 monoclonal antibody) (antibody, V domains shown)
VH: QVQLVQSGSEVKKPGASVKVSCKASGYTFTTYAMNWVRQAPGQGLEWMGWINTNTGNPTYAQGFTGRFVFSLDTSVNTAYLQISSLKAEDTAVYYCARDFGGFDYWGQGTLVTVSS
VL: AIQLTQSPSSLSASVGDRVTITCRASQGISSALAWYQQKPGKAPKLLINDASSLESGVPSRFSGSGSGTDFTLTISSLQPEDFATYYCQQFNNYPRTFGQGTKVEIKR
modifications: N-terminal glutamine to pyroglutamate; N-glycan at N297 (Table 4)
notes: Full-length human IgG1 produced in CHO cells; derived from clone 16D9
With B1 the EC50 [1] was 44 pM, the EC50 [2] was 80 pM and the EC50 [3] was 92 pM. For the same binder, the EC50 [4] was 22.1 pM, the EC50 [5] was 22 to 76 pM and the Kd [6] was 45 pM. For the same binder, the EC50 [7] was roughly 5 ng/mL, the EC50 [8] was 22 to 76 pM and the “IFN-γ production of CD4+CD45RO+ memory T cells, CHO-svCD3-CD32a co-culture (EC50)” value [9] was 15 pM. The “IFN-γ secretion in FIG. 6(B), CHO-svCD3-CD32a co-culture (EC50)” value [9] was 6.24 pM, the “IFN-γ secretion, CHO-svCD3-CD32a co-culture (mean EC50)” value [9] was 7.8 pM and the “IL-2 release from SEB-stimulated PBMCs, with PD-1 blockade against without” value [9] was 2 fold. For the same binder, the “T cell proliferation in FIG. 6(A), CHO-svCD3-CD32a co-culture (EC50)” value [9] was 4.5 pM, the “T cell proliferation, CHO-svCD3-CD32a co-culture (mean EC50)” value [9] was 9 pM and the “induction of IFN-γ secretion from CD4+CD25- T cells co-cultured with B cells, 100 ng/ml SEB, antibody at 10 µg/ml” value [9] was greater than 2.5 fold. For the same binder, the “proliferation of CD4+CD45RO+ memory T cells, CHO-svCD3-CD32a co-culture (EC50)” value [9] was 5 pM and the “EC50 (read off the curve)” value [10] was roughly 100 pM.

B2: Fab fragment of BMS-986215 (Fab, V domains shown)
VH: QVQLVQSGSEVKKPGASVKVSCKASGYTFTTYAMNWVRQAPGQGLEWMGWINTNTGNPTYAQGFTGRFVFSLDTSVNTAYLQISSLKAEDTAVYYCARDFGGFDYWGQGTLVTVSS
VL: AIQLTQSPSSLSASVGDRVTITCRASQGISSALAWYQQKPGKAPKLLINDASSLESGVPSRFSGSGSGTDFTLTISSLQPEDFATYYCQQFNNYPRTFGQGTKVEIK
In the case of B2, the Kd [11] is reported as 41000 to 44000 pM, the “fold loss of affinity from 25° C. to 37° C.” value [12] is reported as 3 fold and the Kd [13] is reported as 13000 to 16000 pM.

B3: Reference HuMAb 1F5 (human anti-hCD27 mAb, ligand blocking) (antibody, human IgG1, kappa, V domains shown)
VH: QVQLVESGGGVVQPGRSLRLSCAASGFTFSSYDMHWVRQAPGKGLEWVAVIWYDGSNKYYADSVKGRFTISRDNSKNTLYLQMNSLRAEDTAVYYCARGSGNWGFFDYWGQGTLVTVSS
VL: DIQMTQSPSSLSASVGDRVTITCRASQGISRWLAWYQQKPEKAPKSLIYAASSLQSGVPSRFSGSGSGTDFTLTISSLQPEDFATYYCQQYNTYPRTFGQGTKVEIKR
notes: also called 1F5-IgG1
With B3 the EC50 [3] was 1800 pM, the EC50 [4] was 1090 pM and the “IFN-γ production of CD4+CD45RO+ memory T cells, CHO-svCD3-CD32a co-culture (EC50)” value [9] was 89 pM. For the same binder, the “IFN-γ secretion in FIG. 6(B), CHO-svCD3-CD32a co-culture (EC50)” value [9] was 40.2 pM, the “T cell proliferation in FIG. 6(A), CHO-svCD3-CD32a co-culture (EC50)” value [9] was 35.7 pM and the “proliferation of CD4+CD45RO+ memory T cells, CHO-svCD3-CD32a co-culture (EC50)” value [9] was 73 pM. For the same binder, the “IC50 (read off the curve)” value [14] was roughly 1000 pM.
